According to the supplement of paper PMC10724198:
± gives the standard deviation of the averaged measurements.
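Also: PSI is a weighted mean of sequencing reads over stability bins, variants kept only with over 10 reads, mCherry proximal and sfGFP distal, peptide attached via GGGS linker.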

Each sequence was assayed on Saccharomyces cerevisiae (assay: protein stability index of tFT-peptide fusion (C-terminal peptide) (PSI (0-1 scale)); higher = more stable (slower turnover)). Conditions: genetic background: wild type; temperature: 30 C.
Method: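 Multiplexed protein stability (MPS) profiling in S. cerevisiae. Random 12-aa peptides (tFT-X12 library) are fused to the C-terminus of a sfGFP-mCherry tandem fluorescent timer, after mCherry and a GGGS linker. Cells are FACS-sorted into 8 mCherry/sfGFP bins and deep-sequenced. The protein stability index (PSI) is the read-weighted bin average, scaled from 0 (unstable) to 1 (stable). Only peptides with >10 reads are reported; cells were grown at 30 °C in SC-His with glucose.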
AAARTGIATLRT was tested, and the protein stability index was 0.691 ± 0.01. For AAGCSSGQAQFG, the protein stability index was 0.727 ± 0.09. Work on AAGPGRWRWRGA yielded a protein stability index of 0.643 ± 0.0093. AAGWLWVWGVEG gave a protein stability index of 0.6429 ± 0.0017. AAHRRRRSPPRP was tested, and the protein stability index was 0.5909 ± 0.0014. AALHPLRISASV was tested, and the protein stability index was 0.646 ± 0.081. AALIHLSFYSPS showed a protein stability index of 0.67 ± 0.02. For AALTPSCPLHLP, the protein stability index was 0.713 ± 0.024. For AAMKQAIKGPVK, the protein stability index was 0.696 ± 0.019. AAPRPYRPCYPN showed a protein stability index of 0.664 ± 0.029. AAVLSYLKHLFV was tested, and the protein stability index was 0.627 ± 0.022. With AAVSSDASVLRF the protein stability index was 0.628 ± 0.027. In the case of ACGAWAVVGLLG, the protein stability index is reported as 0.679 ± 0.042. ACGDRGGRCSEG showed a protein stability index of 0.678 ± 0.089. For ACPGGPFALRSH, the protein stability index was 0.666 ± 0.029. ACRVAVGRLFGS showed a protein stability index of 0.717 ± 0.037. With ACSHFLEEFCFF the protein stability index was 0.75 ± 0.046. ACVSGSGLCLFV was tested, and the protein stability index was 0.694 ± 0.04. With ADAKVGVIWVAL the protein stability index was 0.628 ± 0.08. For ADCRSRPMREGS, the protein stability index was 0.665 ± 0.036. In the case of ADMPPEFKPALS, the protein stability index is reported as 0.637 ± 0.073. ADSGAHTISTVC gave a protein stability index of 0.663 ± 0.01. ADWTATTDPTST was tested, and the protein stability index was 0.748 ± 0.019. For AEAKRKSTYKRW, the protein stability index was 0.607 ± 0.026. AEERATKNGARQ was tested, and the protein stability index was 0.67 ± 0.055. With AEGKGRCRRSCW the protein stability index was 0.693 ± 0.072. AERCVLEKSPRL gave a protein stability index of 0.743 ± 0.064. AFDKDLLGMMFS was tested, and the protein stability index was 0.692 ± 0.024. For AFDRVPLVFVST, the protein stability index was 0.564 ± 0.011. Sequence AFFLDKASQLES has a protein stability index of 0.694 ± 0.05. AGALGADRWGLK gave a protein stability index of 0.741 ± 0.0085. AGAWLVDAAVGV gave a protein stability index of 0.612 ± 0.017. For AGAWVREVVGWG, the protein stability index was 0.707 ± 0.014. AGERQIRISING gave a protein stability index of 0.691 ± 0.031. In the case of AGFGLRGWMIPP, the protein stability index is reported as 0.68838 ± 0.00018. For AGGGLGGVGDVV, the protein stability index was 0.681 ± 0.052. Sequence AGGRGNVGGVHV has a protein stability index of 0.679 ± 0.048. AGGSTGMGARSR was tested, and the protein stability index was 0.688 ± 0.015. For AGGTRRRTGRRR, the protein stability index was 0.7019 ± 0.0024. In the case of AGHTTVTNPLPQ, the protein stability index is reported as 0.738 ± 0.079. In the case of AGLACWGGVGER, the protein stability index is reported as 0.693 ± 0.0079. AGLLLGGRVFGW was tested, and the protein stability index was 0.708 ± 0.067. In the case of AGLPEKARDRGS, the protein stability index is reported as 0.638 ± 0.045. For AGLRRLRDFGSN, the protein stability index was 0.726 ± 0.037. With AGLSVRSILLSI the protein stability index was 0.599 ± 0.039. In the case of AGPPPIFGHHTQ, the protein stability index is reported as 0.765 ± 0.036. Sequence AGSRPCPGWPPG has a protein stability index of 0.691 ± 0.011. For AGVECADRVLWG, the protein stability index was 0.774 ± 0.066. With AGVGVSSSLLPL the protein stability index was 0.664 ± 0.025. Work on AGWGWGARQGAL yielded a protein stability index of 0.659 ± 0.037. Work on AGWPWAGRSCWG yielded a protein stability index of 0.728 ± 0.044. Sequence AHGRFTISLAGL has a protein stability index of 0.743 ± 0.057. Sequence AHSSPMGYLPPF has a protein stability index of 0.693 ± 0.11. For AHYPGRAHLLCL, the protein stability index was 0.607 ± 0.02. AIIERVEQIVTA was tested, and the protein stability index was 0.522 ± 0.052. AISVCCFLCEFF was tested, and the protein stability index was 0.509 ± 0.023. AIVRFAPWPVPR showed a protein stability index of 0.701 ± 0.043. Sequence AKKAEKQKKEKT has a protein stability index of 0.82 ± 0.019. Sequence AKLFSEGLQMHH has a protein stability index of 0.729 ± 0.049. In the case of AKNQSTGCKKKV, the protein stability index is reported as 0.684 ± 0.043. AKQVVGASWIVA was tested, and the protein stability index was 0.607 ± 0.044. With AKRRTNRLHCNA the protein stability index was 0.6427 ± 0.0029. For AKVRGGKGLRLV, the protein stability index was 0.6687 ± 0.003. ALAPSAFSSSPL was tested, and the protein stability index was 0.6645 ± 0.0022. ALAQSGNVVLDR gave a protein stability index of 0.751 ± 0.1. Sequence ALASPAPLPRRD has a protein stability index of 0.7561 ± 0.0057. ALATPLWDLMPP showed a protein stability index of 0.606 ± 0.072. With ALCLDGCSLGEF the protein stability index was 0.704 ± 0.017. ALEAAWGGLGGS was tested, and the protein stability index was 0.695 ± 0.013. Work on ALFPRLVRPGFV yielded a protein stability index of 0.697 ± 0.036. In the case of ALGPPAPGPCRA, the protein stability index is reported as 0.654 ± 0.021. ALGVGLDEILVM was tested, and the protein stability index was 0.556 ± 0.0093. ALLMDENTRVLF gave a protein stability index of 0.649 ± 0.051. ALLPSAWPFRPP was tested, and the protein stability index was 0.611 ± 0.044. ALLTPPPLPPTV gave a protein stability index of 0.61 ± 0.061. ALPLSPRTHRCS gave a protein stability index of 0.503 ± 0.097. Work on ALRGWIRRRFPV yielded a protein stability index of 0.671 ± 0.03. In the case of ALRPLLGRDHKV, the protein stability index is reported as 0.68 ± 0.042. For ALRVAVIANMRV, the protein stability index was 0.5724 ± 0.0057. In the case of ALRVGTGTVRFE, the protein stability index is reported as 0.712 ± 0.051. ALSCLVCLFGLL gave a protein stability index of 0.545 ± 0.054. With ALSDPDTVRLYA the protein stability index was 0.7107 ± 0.0032. Work on ALSPPPSLRLPF yielded a protein stability index of 0.7388 ± 0.0023. For ALSVSLFKDGLF, the protein stability index was 0.672 ± 0.063. For ALTFYYRGWSGL, the protein stability index was 0.619 ± 0.019. ALWALSTHHVRK was tested, and the protein stability index was 0.73866 ± 0.00051. ANSRVVSFRLSG showed a protein stability index of 0.693 ± 0.047. Sequence APAPPPSPPLPS has a protein stability index of 0.68 ± 0.0081. With APAPTLPALPPL the protein stability index was 0.745 ± 0.026. For APARPCPLLSTS, the protein stability index was 0.612 ± 0.034. APASSSAHTPFP showed a protein stability index of 0.723 ± 0.019. Work on APAVPITPPPFP yielded a protein stability index of 0.696 ± 0.05. Sequence APGPAAPGHGYL has a protein stability index of 0.744 ± 0.039. APKVICPHLIRL gave a protein stability index of 0.68 ± 0.013. Work on APLPPLYPPSPP yielded a protein stability index of 0.648 ± 0.065. In the case of APLPPPPDPPLP, the protein stability index is reported as 0.695 ± 0.025. With APLPPPRPPPSP the protein stability index was 0.657 ± 0.081. Sequence APPLPTHYCPHL has a protein stability index of 0.841 ± 0.23. APPPAPPPPPQT gave a protein stability index of 0.662 ± 0.0089. In the case of APPPFRAPPGFR, the protein stability index is reported as 0.845 ± 0.093. In the case of APPPPPIPAPPP, the protein stability index is reported as 0.714 ± 0.038. APPPPPVPLPPP showed a protein stability index of 0.722 ± 0.024. Sequence APPPPRAPTPPP has a protein stability index of 0.696 ± 0.011. With APPPSPLPLPSL the protein stability index was 0.689 ± 0.08. In the case of APPPSPSPPPPL, the protein stability index is reported as 0.712 ± 0.039. Work on APPRLTTLSMNL yielded a protein stability index of 0.696 ± 0.0073. In the case of APPRPPTLHRPH, the protein stability index is reported as 0.721 ± 0.0085. In the case of APPTSPLPIPSP, the protein stability index is reported as 0.698 ± 0.017. Work on APRHSSLHPAPS yielded a protein stability index of 0.6986 ± 0.0029. With APRPPSLSPSPP the protein stability index was 0.681 ± 0.0076. With APRPSPRPTPPS the protein stability index was 0.662 ± 0.078. In the case of APRRAPSRRIRL, the protein stability index is reported as 0.748 ± 0.016. APSDRRRTPTPT showed a protein stability index of 0.69 ± 0.013. In the case of APSLPPVVQPLI, the protein stability index is reported as 0.663 ± 0.023. APSPLHFPPPPT was tested, and the protein stability index was 0.67 ± 0.0048. APSPPSSPSAPP showed a protein stability index of 0.643 ± 0.052. Work on APSVSKNSEVRK yielded a protein stability index of 0.681 ± 0.019. Sequence APTPPPPSPLAP has a protein stability index of 0.73 ± 0.051. AQDECVMVWYVG showed a protein stability index of 0.651 ± 0.013. AQDSFGFPPPPS was tested, and the protein stability index was 0.726 ± 0.018. AQPIPTLYRAPP gave a protein stability index of 0.729 ± 0.049. For AQRNSPIVLAVL, the protein stability index was 0.527 ± 0.0063. Work on ARAGQGEWGGGV yielded a protein stability index of 0.701 ± 0.033. ARALCYSFPPAL showed a protein stability index of 0.77 ± 0.1. In the case of ARGALPHHVSCV, the protein stability index is reported as 0.691 ± 0.11. Work on ARGKYKKLKIKE yielded a protein stability index of 0.733 ± 0.018. ARIQECLTKASK was tested, and the protein stability index was 0.607 ± 0.095. In the case of ARLCLVRTKRHS, the protein stability index is reported as 0.684 ± 0.044. ARLGNPHFKIFS showed a protein stability index of 0.684 ± 0.089. With ARLPCVVFLLDE the protein stability index was 0.666 ± 0.036. ARPASGCFCLFR was tested, and the protein stability index was 0.655 ± 0.071. ARRPGGGRSGGN showed a protein stability index of 0.672 ± 0.039. In the case of ARSSILRCRGYR, the protein stability index is reported as 0.747 ± 0.095. ASAPPHVSAPSP gave a protein stability index of 0.654 ± 0.012. ASGASEVGACAG was tested, and the protein stability index was 0.685 ± 0.033. In the case of ASGGIIRWGLWM, the protein stability index is reported as 0.694 ± 0.029. With ASGIYSRFSTSS the protein stability index was 0.624 ± 0.052. Sequence ASLPPLSPPSSL has a protein stability index of 0.71 ± 0.045. With ASMRIVWWFGML the protein stability index was 0.495 ± 0.047. ASPAWYARGISR showed a protein stability index of 0.733 ± 0.033. In the case of ASPLFFHPSAPH, the protein stability index is reported as 0.6891 ± 0.0046. Sequence ASPLSIPPLSPS has a protein stability index of 0.633 ± 0.073. Work on ASPPAYCPPPPP yielded a protein stability index of 0.666 ± 0.039. ASPPPPRISAWL gave a protein stability index of 0.7159 ± 0.0036. In the case of ASPSYLFFLLPC, the protein stability index is reported as 0.5788 ± 0.0018. ASQSFSFITFTY showed a protein stability index of 0.645 ± 0.056.
